Assay results: the Human Domainome abundance scans (Beltran et al. 2025)
± gives the uncertainty stated by the source.

B1: Metastasis-associated protein MTA3, residues 265 to 317; numbered along this chain, Q9BTC8 (parent)
chain: RDEMEEWSASEASLFEEALEKYGKDFNDIRQDFLPWKSLTSIIEYYYMWKTTD

Variants of: B1
Test: abundance fitness (aPCA) (normalised: wild type 0, dead -1); higher = more abundant; growth selection in yeast, the domain comes from the species named
Settings: Homo sapiens
Work on T51R yielded an abundance fitness of -0.097 ± 0.075.
T51C gave an abundance fitness of -0.244 ± 0.12.
T51P showed an abundance fitness of -0.1 ± 0.1.
Work on T51F yielded an abundance fitness of -0.732 ± 0.35.
T51Q showed an abundance fitness of 0.433 ± 0.14.
Work on S10L yielded an abundance fitness of -0.038 ± 0.063.
With S10W the abundance fitness was 0.031 ± 0.084.
S10P showed an abundance fitness of -0.743 ± 0.1.
S10K showed an abundance fitness of 0.219 ± 0.1.
For S10Q, the abundance fitness was -0.252 ± 0.11.
Variant S10E has an abundance fitness of -0.012 ± 0.1.
Variant Y22R has an abundance fitness of -0.2 ± 0.079.
For Y22S, the abundance fitness was -0.53 ± 0.088.
Work on Y22W yielded an abundance fitness of -0.84 ± 0.28.
Y22A gave an abundance fitness of -0.687 ± 0.18.
E17Q showed an abundance fitness of -0.557 ± 0.12.
E17I gave an abundance fitness of -0.591 ± 0.2.
For E11R, the abundance fitness was -0.92 ± 0.13.
E11D gave an abundance fitness of 0.386 ± 0.078.
With E11G the abundance fitness was -0.68 ± 0.15.
Variant A18N has an abundance fitness of -0.863 ± 0.24.
With A18L the abundance fitness was -0.627 ± 0.083.
I42R gave an abundance fitness of -0.69 ± 0.073.
I42F showed an abundance fitness of -0.634 ± 0.2.
With I42A the abundance fitness was -0.98 ± 0.17.
Variant E6D has an abundance fitness of -0.443 ± 0.32.
E6H showed an abundance fitness of 0.415 ± 0.24.
E6A showed an abundance fitness of 0.228 ± 0.19.
Variant L19Q has an abundance fitness of -0.34 ± 0.11.
Variant L19E has an abundance fitness of -0.809 ± 0.2.
D28Q gave an abundance fitness of 1.19 ± 0.16.
Work on D28L yielded an abundance fitness of 0.978 ± 0.099.
In the case of D28C, the abundance fitness is reported as 0.882 ± 0.17.
For D28K, the abundance fitness was 0.9 ± 0.12.
For D28T, the abundance fitness was 0.59 ± 0.16.
D28N showed an abundance fitness of -0.112 ± 0.33.
In the case of W36E, the abundance fitness is reported as -0.884 ± 0.3.
W36R showed an abundance fitness of -0.58 ± 0.091.
Variant W36A has an abundance fitness of -0.788 ± 0.08.
For W36Q, the abundance fitness was -0.422 ± 0.17.
W36T showed an abundance fitness of -0.696 ± 0.084.
For W36N, the abundance fitness was -0.177 ± 0.1.
For W36M, the abundance fitness was -0.677 ± 0.11.
Variant W36G has an abundance fitness of -0.484 ± 0.092.
For D25H, the abundance fitness was -0.125 ± 0.14.
For D25G, the abundance fitness was -0.47 ± 0.16.
For D25I, the abundance fitness was -0.162 ± 0.18.
In the case of D25L, the abundance fitness is reported as -0.741 ± 0.13.
Variant D25M has an abundance fitness of -0.25 ± 0.16.
In the case of D2M, the abundance fitness is reported as 0.033 ± 0.22.
D2K showed an abundance fitness of 0.523 ± 0.093.
W7N gave an abundance fitness of -0.697 ± 0.18.
For W7L, the abundance fitness was -0.71 ± 0.099.
In the case of W7M, the abundance fitness is reported as -1 ± 0.36.
W7G gave an abundance fitness of -0.427 ± 0.16.
R1C showed an abundance fitness of 0.057 ± 0.077.
K21H gave an abundance fitness of -0.674 ± 0.17.
Variant K21C has an abundance fitness of -0.683 ± 0.34.
For K21W, the abundance fitness was -0.801 ± 0.11.
K21Q showed an abundance fitness of -0.685 ± 0.1.
In the case of S38D, the abundance fitness is reported as -0.71 ± 0.21.
With S38K the abundance fitness was -0.852 ± 0.23.
For S38V, the abundance fitness was -0.821 ± 0.23.
Variant S38Y has an abundance fitness of -0.711 ± 0.092.
S38Q showed an abundance fitness of -0.393 ± 0.14.
M48N gave an abundance fitness of -0.144 ± 0.27.
In the case of M48G, the abundance fitness is reported as -0.257 ± 0.14.
For M48D, the abundance fitness was -0.619 ± 0.35.
With M48V the abundance fitness was -0.212 ± 0.084.
For M48S, the abundance fitness was -0.04 ± 0.14.
In the case of M48A, the abundance fitness is reported as -0.006 ± 0.091.
With M48F the abundance fitness was 0.204 ± 0.33.
In the case of E5A, the abundance fitness is reported as 0.173 ± 0.22.
With L39A the abundance fitness was -0.6 ± 0.21.
Work on L39T yielded an abundance fitness of -0.389 ± 0.19.
Work on L39D yielded an abundance fitness of -0.483 ± 0.26.
Work on K37V yielded an abundance fitness of -0.842 ± 0.12.
For K37R, the abundance fitness was -0.398 ± 0.075.
For K37C, the abundance fitness was -0.763 ± 0.088.
K37D showed an abundance fitness of -0.707 ± 0.087.
Variant K37N has an abundance fitness of -0.803 ± 0.1.
For K24F, the abundance fitness was -0.992 ± 0.19.
For K24G, the abundance fitness was -0.208 ± 0.13.
K24E gave an abundance fitness of -0.133 ± 0.17.
